Test [1] has as its target T1, CTLA-4 (antigen coated on ELISA plates and immunotubes) (UniProt P16410 36-161, limits assumed).
T1 construct: also called CTLA-4抗原; 细胞毒性T淋巴细胞相关抗原4
T1 sequence (looked up): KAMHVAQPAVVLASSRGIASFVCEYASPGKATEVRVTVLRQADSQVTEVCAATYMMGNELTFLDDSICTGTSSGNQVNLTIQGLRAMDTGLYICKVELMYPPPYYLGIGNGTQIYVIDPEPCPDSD
Kind of test: ELISA, full antibody on coated CTLA-4, anti-human IgG-HRP. On the technique in general: An ELISA detects its analyte on a solid surface through an enzyme-linked reagent.

Test [2] addresses T2, 细胞表面CTLA-4抗原 (CTLA-4 on cells) (UniProt P16410 36-223, limits assumed).
T2 sequence (looked up): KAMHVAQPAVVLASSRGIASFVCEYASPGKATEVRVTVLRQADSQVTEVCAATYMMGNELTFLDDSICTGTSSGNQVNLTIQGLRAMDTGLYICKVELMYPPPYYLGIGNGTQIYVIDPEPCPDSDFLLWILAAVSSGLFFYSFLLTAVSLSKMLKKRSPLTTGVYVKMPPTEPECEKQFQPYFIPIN
Kind of test: cell-based or functional assay.

Test [3] addresses T2, 细胞表面CTLA-4抗原 (CTLA-4 on cells). The experiment in a line: flow cytometry on CHO cells over-expressing CTLA-4, Alexa488 anti-human IgG Fc. On the technique in general: Flow cytometry measures light scatter and fluorescence of single cells or particles in a stream.

Residue numbers refer to the chain shown, from its start.

Consider eight molecules from patent publication CN110840830A (BEIJING DONGFANG BIOTECH CO LTD, dated 2020).

The EC50 is the concentration at which the effect is half-maximal.

B1: 全抗N-2 (antibody, human IgG1, kappa, V domains shown)
VH: QVQLVESGGGVVQPGRSLRLSCAASGFTFSSIFKRWVRQAPGKGLEWVTFISYDGLDHINGDSVKGRFTISRDNSKNTLYLQMNSLRAEDTAIYYCARRYRWWGKAMDYWGQGTLVTVSS
VL: DIVMTQSPLSLPVTPGEPASISCKSSQSVIDSKGYTYLGWYLQKPGQSPQLLIYLGTQKSSGVPDRFSGSGSGTDFTLKISRVEAEDVGVYYCLQRGHIPITFGQGTKLEIKR
notes: also called 抗CTLA-4全抗体N-2
Regarding B1, the EC50 is 0.11 µg/mL in test [1] and 0.00895 µg/mL in test [3]. Also, the “混合淋巴细胞反应(MLR), CD4+ T细胞增殖 (cck8), EC50” value in test [2] is 8.31 nM.

B2: 全抗N-8 (antibody, human IgG1, kappa, V domains shown)
VH: B1 VH with S31G, I32F, F33S, K34I, R35C, D57L, H58F, I59L, N60I, G61A
VL: DIVMTQSPLSLPVTPGEPASISCRSSQTVFDSHGQTYLQWYLQKPGQSPQLLIYGASRQVSGVPDRFSGSGSGTDFTLKISRVEAEDVGVYYCMQVWHLPITFGQGTKLEIKR
notes: also called 抗CTLA-4全抗体N-8
Turning to B2, the EC50 in test [1] amounted to 0.164 µg/mL; in test [3] it was 0.00649 µg/mL. Also, the “混合淋巴细胞反应(MLR), CD4+ T细胞增殖 (cck8), EC50” value in test [2] is 7.32 nM.

B3: 全抗N-5 (antibody, human IgG1, kappa, V domains shown)
VH: B1 VH with S31G, I32F, K34N, G55A, D57K, H58D, I59F, N60Y, G61A, Q112P
VL: B2 VL
notes: also called 抗CTLA-4全抗体N-5; N-5的全抗体
As for B3, the EC50 came out at 0.0689 µg/mL in test [1] and 0.00612 µg/mL in test [3]. Also, the “混合淋巴细胞反应(MLR), CD4+ T细胞增殖 (cck8), EC50” value in test [2] was 4.95 nM.

B4: 全抗N-6 (antibody, human IgG1, kappa, V domains shown)
VH: B1 VH with I32N, F33T, K34L, G55S, D57F, H58L, I59D, N60Q
VL: B2 VL
notes: also called 抗CTLA-4全抗体N-6
B4: the results for the 50% effective concentration (EC50) in test [1] and in test [3] were 0.127 µg/mL and 0.00705 µg/mL, respectively. In test [2], the “混合淋巴细胞反应(MLR), CD4+ T细胞增殖 (cck8), EC50” value was found to be 6.67 nM.

B5: 全抗N-3 (antibody, human IgG1, kappa, V domains shown)
VH: B1 VH with S31G, K34S, R35S, G55S, D57K, H58Q, I59K, N60D
VL: B1 VL
notes: also called 抗CTLA-4全抗体N-3
Take B5: the EC50 in test [1] was determined as 0.264 µg/mL; in test [3], 0.00896 µg/mL. The “混合淋巴细胞反应(MLR), CD4+ T细胞增殖 (cck8), EC50” value in test [2] came out at 14.2 nM.

B6: 全抗N-4 (antibody, human IgG1, kappa, V domains shown)
VH: B1 VH with S31A, I32F, F33Y, K34N, R35P, L56V, D57Y, H58F, I59H, N60F
VL: B1 VL
notes: also called 抗CTLA-4全抗体N-4
B6: the concentration giving a half-maximal response (EC50) in test [1] is 0.0922 µg/mL; in test [3], 0.0111 µg/mL. In addition, in test [2], the “混合淋巴细胞反应(MLR), CD4+ T细胞增殖 (cck8), EC50” value turned out to be 15.4 nM.

B7: 全抗N-7 (antibody, human IgG1, kappa, V domains shown)
VH: QVQLVESGGGVVQPGRSLRLSCAASGFTFSGIYCNWVRQAPGKGLEWVTFISYDSILNVIADSVKGRFTISRDNSKNTLYLQMNSLRAEDTAIYYCARRYRWWGKAMDYWGQGTLVTVSS
VL: B2 VL
notes: also called 抗CTLA-4全抗体N-7
B7: the concentration for a half-maximal effect (EC50) in test [1] came out at 0.0865 µg/mL; in test [3] it was 0.00792 µg/mL. The “混合淋巴细胞反应(MLR), CD4+ T细胞增殖 (cck8), EC50” value in test [2] stood at 6.31 nM.

B8: 全抗N-1 (antibody, human IgG1, kappa, V domains shown)
VH: B7 VH with I32Y, Y33N, C34G, S55G, I56L, L57N, N58D, I60K
VL: B1 VL
notes: also called 抗CTLA-4全抗体N-1
Regarding B8, the concentration giving a half-maximal response (EC50) was 0.163 µg/mL in test [1] and 0.00709 µg/mL in test [3]. Moreover, the “混合淋巴细胞反应(MLR), CD4+ T细胞增殖 (cck8), EC50” value in test [2] came to 7.34 nM.
